B1: Protein G Sepharose (other, UniProt P19909 303-497, looked up)
chain: TYKLILNGKTLKGETTTEAVDAATAEKVFKQYANDNGVDGEWTYDDATKTFTVTEKPEVIDASELTPAVTTYKLVINGKTLKGETTTEAVDAATAEKVFKQYANDNGVDGEWTYDDATKTFTVTEKPEVIDASELTPAVTTYKLVINGKTLKGETTTKAVDAETAEKAFKQYANDNGVDGVWTYDDATKTFTVTE
B2: cyclophilin B (CyPB) (enzyme)
chain: not shown

What was measured:
[1] = target: T1, CSABP (cyclosporin A-binding protein), endogenous in MH14 cells (human, UniProt Q9H6S0 1-1430); assay: Protein G Sepharose control precipitation from MH14 cell extract, western blot with anti-CSABP antibody
T1 construct: also called CSABP protein; CSABP molecule
T1 sequence: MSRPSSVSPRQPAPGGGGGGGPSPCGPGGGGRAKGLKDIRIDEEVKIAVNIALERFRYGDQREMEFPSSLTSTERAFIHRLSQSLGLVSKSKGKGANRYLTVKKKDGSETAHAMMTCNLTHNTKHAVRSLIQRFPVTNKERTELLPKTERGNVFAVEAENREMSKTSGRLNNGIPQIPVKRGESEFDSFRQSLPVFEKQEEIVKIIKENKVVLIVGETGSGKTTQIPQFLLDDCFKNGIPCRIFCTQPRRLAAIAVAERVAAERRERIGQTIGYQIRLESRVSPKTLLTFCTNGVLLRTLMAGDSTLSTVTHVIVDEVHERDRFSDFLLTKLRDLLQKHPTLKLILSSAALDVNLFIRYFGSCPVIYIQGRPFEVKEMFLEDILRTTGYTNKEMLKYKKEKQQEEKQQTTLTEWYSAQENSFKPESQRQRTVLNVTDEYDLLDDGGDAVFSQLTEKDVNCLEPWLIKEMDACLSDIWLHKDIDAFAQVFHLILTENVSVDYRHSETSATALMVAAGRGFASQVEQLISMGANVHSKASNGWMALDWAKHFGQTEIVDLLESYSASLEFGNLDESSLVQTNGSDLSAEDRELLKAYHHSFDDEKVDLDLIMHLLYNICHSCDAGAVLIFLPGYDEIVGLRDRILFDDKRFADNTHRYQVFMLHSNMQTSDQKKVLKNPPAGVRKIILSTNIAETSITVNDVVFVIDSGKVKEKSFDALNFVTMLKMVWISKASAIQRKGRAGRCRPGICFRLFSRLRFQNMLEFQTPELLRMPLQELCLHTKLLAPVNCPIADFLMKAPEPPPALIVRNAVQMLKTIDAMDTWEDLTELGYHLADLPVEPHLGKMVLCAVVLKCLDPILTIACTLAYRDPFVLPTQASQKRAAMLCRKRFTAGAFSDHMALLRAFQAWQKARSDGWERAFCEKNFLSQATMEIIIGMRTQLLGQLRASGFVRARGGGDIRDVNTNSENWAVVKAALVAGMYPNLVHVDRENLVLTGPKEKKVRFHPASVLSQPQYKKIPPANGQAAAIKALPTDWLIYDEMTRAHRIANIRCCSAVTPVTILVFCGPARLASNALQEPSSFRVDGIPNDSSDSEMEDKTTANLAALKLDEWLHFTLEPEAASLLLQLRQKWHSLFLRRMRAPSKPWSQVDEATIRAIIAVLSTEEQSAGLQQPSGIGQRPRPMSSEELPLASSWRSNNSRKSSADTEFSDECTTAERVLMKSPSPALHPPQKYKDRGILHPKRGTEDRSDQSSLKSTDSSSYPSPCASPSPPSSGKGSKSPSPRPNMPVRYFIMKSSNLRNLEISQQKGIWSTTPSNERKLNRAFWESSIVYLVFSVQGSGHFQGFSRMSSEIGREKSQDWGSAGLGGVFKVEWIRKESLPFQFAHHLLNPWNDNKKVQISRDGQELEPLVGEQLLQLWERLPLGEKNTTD

Protein G Sepharose = target: B1; assay: Protein G Sepharose control precipitation from MH14 cell extract, western blot with anti-CyPB antibody

Row | Binder | binding result [1] | binding result (Protein G Sepharose)
1 | B1 | no binding | –
2 | B2 | – | no binding
